# Data published in patent US20040077526A1.
# How the values were obtained:
# [1] = biological target: murine SR-BI (mSR-BI), class B type I scavenger receptor (murine) (UniProt Q61009); experiment: cell association of 125I-HDL with ldlA[mSR-BI] cells at 37 C
# [2] = biological target: murine SR-BI (mSR-BI), class B type I scavenger receptor (murine) (UniProt Q61009); experiment: time course of cell association of 125I-HDL with ldlA[mSR-BI] cells at 37 C
# [3] = biological target: murine SR-BI (mSR-BI), class B type I scavenger receptor (murine) (UniProt Q61009); experiment: self-competition: unlabeled HDL (500 µg protein/ml) against [125I,3H]hHDL3 (10 µg protein/ml) on Y1-BS1 cells
# Sequence of UniProt Q61009 (Q61009 whole entry): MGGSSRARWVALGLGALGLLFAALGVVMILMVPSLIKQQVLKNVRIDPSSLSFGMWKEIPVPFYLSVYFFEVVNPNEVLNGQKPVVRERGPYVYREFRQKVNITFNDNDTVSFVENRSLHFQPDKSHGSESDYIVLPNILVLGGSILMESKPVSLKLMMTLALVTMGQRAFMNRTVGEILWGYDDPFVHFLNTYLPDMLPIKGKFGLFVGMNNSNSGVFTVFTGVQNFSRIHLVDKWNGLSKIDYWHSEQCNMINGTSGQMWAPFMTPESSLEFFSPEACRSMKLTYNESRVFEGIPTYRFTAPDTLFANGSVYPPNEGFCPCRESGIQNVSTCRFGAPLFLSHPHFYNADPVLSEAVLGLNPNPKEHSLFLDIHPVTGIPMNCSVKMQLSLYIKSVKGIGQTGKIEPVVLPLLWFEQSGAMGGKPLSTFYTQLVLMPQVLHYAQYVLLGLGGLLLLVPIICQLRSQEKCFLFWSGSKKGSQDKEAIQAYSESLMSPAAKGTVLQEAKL
fraction of the total label bound to the transfected cells in 5 hours [1],cell-associated 125I-HDL at steady state (ng protein/mg cell protein) [2],reduction of cell association of HDL [3],Substance
< 0.5%,200,–,human HDL (high density lipoprotein prepared from human plasma by zonal centrifugation) (from UniProt P02647 25-267; P02652 24-100)
–,–,85%,"human HDL3 (hHDL3, 1.125-1.210 g/ml) labeled with [125I]dilactitol tyramine and [3H]cholesteryl oleolyl ether"
